Values belong to the binder of their own block, whether it stands above or below them.
Target: T1, His10 − MBP − KIF1C(714–809) (UniProt O43896 714-809)
T1 chain: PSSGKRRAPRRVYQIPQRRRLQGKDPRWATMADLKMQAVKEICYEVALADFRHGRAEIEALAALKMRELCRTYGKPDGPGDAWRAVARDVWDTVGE
Assay: ITC

- Ka: 631000 M⁻¹
B1: His10 − MBP−Hook3(553–624) (domain or fragment)
chain: EKLHEANNELQKKRAIIEDLEPRFNNSSLKIEELQEALRKKEEEMKQMEERYKKYLEKAKSVIRTLDPKQNQ

- Ka: 194000 M⁻¹
B2: His10 − MBP − PTPN21(19–308) (domain or fragment)
chain: SKSCLVARIQLLNNEFVEFTLSVESTGQESLEAVAQRLELREVTYFSLWYYNKQNQRRWVDLEKPLKKQLDKYALEPTVYFGVVFYVPSVSQLQQEITRYQYYLQLKKDILEGSIPCTLEQAIQLAGLAVQADFGDFDQYESQDFLQKFALFPVGWLQDEKVLEEATQKVALLHQKYRGLTAPDAEMLYMQEVERMDGYGEESYPAKDSQGSDISIGACLEGIFVKHKNGRHPVVFRWHDIANMSHNKSFFALELANKEETIQFQTEDMETAKYIWRLCVARHKFYRLNQ

From article PMC12152161 (2025)
